Values of other authors in patent publication EP4803095A2, “FORMULATIONS OF GLUCAGON-LIKE-PEPTIDE-2 (GLP-2) ANALOGUES” (Zealand Pharma A/S, priority 2018, dated 2026).
Read-outs that look alike come from different tables or passages of the source.

Conditions: for half-life in humans: background art

Row | Substance | half-life in humans | half-life in humans (listed as native GLP-2) | half-life (in vivo)
1 | GLP-2 [3-33]: truncated GLP-2 [3-33] (DGSFSDEMNTILDNLAARDFINWLIQTKITD; Glucagon-like peptide 2; UniProt P01275 148-178, looked up, fragment) | ~27 min |  | 
2 | Hy-His-Ala-Asp-Gly-Ser-Phe-Ser-Asp-Glu-Met-Asn-Thr-Ile-Leu-Asp-Asn-Leu-Ala-Ala-Arg-Asp-Phe-Ile-Asn-Trp-Leu-Ile-Gln-Thr-Lys-Ile-Thr-Asp-OH [GLP-2 [1-33]] | around 7 minutes | seven | 
3 | teduglutide: GLP-2 analogue containing Gly substitution at position 2 |  |  | about two
